Tests used:
Type in all cases: binding
Gβ1γ2 Tyr59Ala = molecular target: T1, Gβ1γ2 Tyr59Ala (Rattus norvegicus, UniProt P54311, Y59A); assay: Phage ELISA, b-βγ mutant Tyr59Ala; conditions: alanine-substituted Tyr59, C-Terminal Interface; mean ± SD
T1 construct: made in house; host or cells: Sf9 insect cells (baculovirus)
From the text: (§1) Wild-type Gβ1 and Gβ1 mutants were made in the baculovirus vector PDW464 which encodes a biotinylation site at a lysine upstream of the amino terminus of Gβ1 (Goubaeva, et al. (2003) supra). Mutants were generated by overlap extension PCR using standard protocols. The wild-type and mutant Gβ1 constructs consisted of a 20 amino acid biotin acceptor peptide (BAP) sequence fused in-frame with the amino-terminus of rat Gβ1 subunit. When coexpressed with biotin holoenzyme synthetase (BirA) in Sf9 cells, the Gβ1 subunit becomes covalently biotinylated in vivo at the Specific lysine acceptor residue in the BAP.
Phage ELISA assays used to assess peptide binding to wild-type and mutant b-βγ were performed according to standard methods (Smrcka and Scott (2002) Methods Enzymol. 344:557-76). Briefly, 1 μg streptavidin was immobilized in the well of a […] overnight at 4° C. The wells were blocked with 100 μL of 2% bovine serum albumin (BSA) in Tris-buffered saline (TBS) for 1 hour at 4° C. followed by three washes of 1×TBS/0.5% TWEEN®. […] The wells were washed, followed by the addition of 1×10^6 to 1×10^10 phage particles and incubated at 4° C. for 3 hours. The wells were then washed six times with TBS/0.5% TWEEN® followed by addition of 40 μL of 1:5000 dilution of anti-M13 antibody (Pharmacia, Uppsala, Sweden) and incubated at room temperature for 1 hour. The wells were washed, followed by the addition of 40 μL of (2,2′-Azino-bis(3-ethylbenzthiazoline)-6-sulfonic acid (ABTS) and the colorimetric reaction was monitored at 405 nm. Non-specific binding was subtracted for each reading.
(§2) Both assays were then carried out with Gβ1γ2 heterodimers containing mutations in the Gβ1 subunit.
The nine peptides were selected to represent the different consensus groups of peptides previously identified (See Scott et al. (2001) supra; Table 9) and to compare binding characteristics within and between consensus groups. […] For the purposes of present disclosure, any substitution that decreased the binding to less than 20% of the wild-type binding was considered to be a critical binding contact for that peptide.

Gβ1γ2 Asp246Ser = molecular target: T2, Gβ1γ2 Asp246Ser (Rattus norvegicus, UniProt P54311, D246S); assay: Phage ELISA, b-βγ mutant Asp246Ser; conditions: Asp246 mutant (Asp246Ser), N-Terminal Interface; mean ± SD
T2 construct: made in house; host or cells: Sf9 insect cells (baculovirus)
From the text: as §1, with “BAP. Using this approach, 1-2 mg protein of purified protein can be obtained per liter of Sf9 insect cells. As 45 ng of protein is used in the phage ELISA assay, a single purification is sufficient for 10,000 to 30,000 binding assays.” for “BAP.”
(§3) Phage ELISA assays used to assess peptide binding to wild-type and mutant b-βγ were performed according to standard methods (Smrcka and Scott (2002) Methods Enzymol. 344:557-76). Briefly, 1 μg streptavidin was immobilized in the well of a […] overnight at 4° C. The wells were blocked with 100 μL of 2% bovine serum albumin (BSA) in Tris-buffered saline (TBS) for 1 hour at 4° C. followed by three washes of 1×TBS/0.5% TWEEN®. Forty μL of 25 nM bGβ1γ2 in TBS/0.5% TWEEN® was added to each well and incubated at 4° C. for 1.5 hour. The wells were washed, followed by the addition of 1×10^6 to 1×10^10 phage particles and incubated at 4° C. for 3 hours. The wells were then washed six times with TBS/0.5% TWEEN® followed by addition of 40 μL of 1:5000 dilution of anti-M13 antibody (Pharmacia, Uppsala, Sweden) and incubated at room temperature for 1 hour. The wells were washed, followed by the addition of 40 μL of (2,2′-Azino-bis(3-ethylbenzthiazoline)-6-sulfonic acid (ABTS) and the colorimetric reaction was monitored at 405 nm. Non-specific binding was subtracted for each reading.
as §2
(§4) The nine peptides were selected to represent the different consensus groups of peptides previously identified (See Scott et al. (2001) supra; Table 9) and to compare binding characteristics within and between consensus groups. […] As disclosed herein, the binding signal obtained in the ELISA assay was correlated to a loss in affinity by comparing the results to behavior of the peptide in a solution based assay. […] For the purposes of present disclosure, any substitution that decreased the binding to less than 20% of the wild-type binding was considered to be a critical binding contact for that peptide.

Gβ1γ2 Asn230Ala = molecular target: T3, Gβ1γ2 Asn230Ala (Rattus norvegicus, UniProt P54311, N230A); assay: Phage ELISA, b-βγ mutant Asn230Ala; conditions: alanine-substituted Asn230, N-Terminal Interface; mean ± SD
T3 construct: made in house; host or cells: Sf9 insect cells (baculovirus)
From the text: as §1, with “BAP. Using this approach, 1-2 mg protein of purified protein can be obtained per liter of Sf9 insect cells. As 45 ng of protein is used in the phage ELISA assay, a single purification is sufficient for 10,000 to 30,000 binding assays.” for “BAP.”
as §3, §2, §4

Gβ1γ2 Tyr145Ala = molecular target: T4, Gβ1γ2 Tyr145Ala (Rattus norvegicus, UniProt P54311, Y145A); assay: Phage ELISA, b-βγ mutant Tyr145Ala; conditions: alanine-substituted Tyr145, N-Terminal Interface; mean ± SD
T4 construct: made in house; host or cells: Sf9 insect cells (baculovirus)
From the text: as §1, with “BAP. Using this approach, 1-2 mg protein of purified protein can be obtained per liter of Sf9 insect cells. As 45 ng of protein is used in the phage ELISA assay, a single purification is sufficient for 10,000 to 30,000 binding assays.” for “BAP.”
as §3, §2, §4

Gβ1γ2 Met101Ala = molecular target: T5, Gβ1γ2 Met101Ala (Rattus norvegicus, UniProt P54311, M101A); assay: Phage ELISA, b-βγ mutant Met101Ala; conditions: alanine-substituted Met101, C-Terminal Interface; mean ± SD
T5 construct: made in house; host or cells: Sf9 insect cells (baculovirus)
From the text: as §1, with “BAP. Using this approach, 1-2 mg protein of purified protein can be obtained per liter of Sf9 insect cells. As 45 ng of protein is used in the phage ELISA assay, a single purification is sufficient for 10,000 to 30,000 binding assays.” for “BAP.”
as §3, §2, §4

Gβ1γ2 Arg314Ala = molecular target: T6, Gβ1γ2 Arg314Ala (Rattus norvegicus, UniProt P54311, R314A); assay: Phage ELISA, b-βγ mutant Arg314Ala; conditions: alanine-substituted Arg314, Indirect; mean ± SD
T6 construct: made in house; host or cells: Sf9 insect cells (baculovirus)
From the text: as §1, with “BAP. Using this approach, 1-2 mg protein of purified protein can be obtained per liter of Sf9 insect cells. As 45 ng of protein is used in the phage ELISA assay, a single purification is sufficient for 10,000 to 30,000 binding assays.” for “BAP.”
as §3, §2, §4

Gβ1γ2 Trp99Ala = molecular target: T7, Gβ1γ2 Trp99Ala (Rattus norvegicus, UniProt P54311, W99A); assay: Phage ELISA, b-βγ mutant Trp99Ala; conditions: alanine-substituted Trp99, C-Terminal Interface; mean ± SD
T7 construct: made in house; host or cells: Sf9 insect cells (baculovirus)
From the text: as §1, with “BAP. Using this approach, 1-2 mg protein of purified protein can be obtained per liter of Sf9 insect cells. As 45 ng of protein is used in the phage ELISA assay, a single purification is sufficient for 10,000 to 30,000 binding assays.” for “BAP.”
as §3, §2, §4

Gβ1γ2 His311Ala = molecular target: T8, Gβ1γ2 His311Ala (Rattus norvegicus, UniProt P54311, H311A); assay: Phage ELISA, b-βγ mutant His311Ala; conditions: alanine-substituted His311, Indirect; mean ± SD
T8 construct: made in house; host or cells: Sf9 insect cells (baculovirus)
From the text: as §1, with “BAP. Using this approach, 1-2 mg protein of purified protein can be obtained per liter of Sf9 insect cells. As 45 ng of protein is used in the phage ELISA assay, a single purification is sufficient for 10,000 to 30,000 binding assays.” for “BAP.”
as §3, §2, §4

Gβ1γ2 Trp332Ala = molecular target: T9, Gβ1γ2 Trp332Ala (Rattus norvegicus, UniProt P54311, W332A); assay: Phage ELISA, b-βγ mutant Trp332Ala; conditions: alanine-substituted Trp332, C-Terminal Interface; mean ± SD
T9 construct: made in house; host or cells: Sf9 insect cells (baculovirus)
From the text: as §1, with “BAP. Using this approach, 1-2 mg protein of purified protein can be obtained per liter of Sf9 insect cells. As 45 ng of protein is used in the phage ELISA assay, a single purification is sufficient for 10,000 to 30,000 binding assays.” for “BAP.”
as §3, §2, §4

Gβ1γ2 Asp186Ala = molecular target: T10, Gβ1γ2 Asp186Ala (Rattus norvegicus, UniProt P54311, D186A); assay: Phage ELISA, b-βγ mutant Asp186Ala; conditions: alanine-substituted Asp186, N-Terminal Interface; mean ± SD
T10 construct: made in house; host or cells: Sf9 insect cells (baculovirus)
From the text: as §1, with “BAP. Using this approach, 1-2 mg protein of purified protein can be obtained per liter of Sf9 insect cells. As 45 ng of protein is used in the phage ELISA assay, a single purification is sufficient for 10,000 to 30,000 binding assays.” for “BAP.”
as §3, §2, §4

Gβ1γ2 Met188Ala = molecular target: T11, Gβ1γ2 Met188Ala (Rattus norvegicus, UniProt P54311, M188A); assay: Phage ELISA, b-βγ mutant Met188Ala; conditions: alanine-substituted Met188, Shared; mean ± SD
T11 construct: made in house; host or cells: Sf9 insect cells (baculovirus)
From the text: as §1, with “BAP. Using this approach, 1-2 mg protein of purified protein can be obtained per liter of Sf9 insect cells. As 45 ng of protein is used in the phage ELISA assay, a single purification is sufficient for 10,000 to 30,000 binding assays.” for “BAP.”
as §3, §2, §4

Gβ1γ2 Lys57Ala = molecular target: T12, Gβ1γ2 Lys57Ala (Rattus norvegicus, UniProt P54311, K57A); assay: Phage ELISA, b-βγ mutant Lys57Ala; conditions: alanine-substituted Lys57, C-Terminal Interface; mean ± SD
T12 construct: made in house; host or cells: Sf9 insect cells (baculovirus)
From the text: as §1, with “BAP. Using this approach, 1-2 mg protein of purified protein can be obtained per liter of Sf9 insect cells. As 45 ng of protein is used in the phage ELISA assay, a single purification is sufficient for 10,000 to 30,000 binding assays.” for “BAP.”
as §3, §2, §4

Gβ1γ2 Leu117Ala = molecular target: T13, Gβ1γ2 Leu117Ala (Rattus norvegicus, UniProt P54311, L117A); assay: Phage ELISA, b-βγ mutant Leu117Ala; conditions: alanine-substituted Leu117, C-Terminal Interface; mean ± SD
T13 construct: made in house; host or cells: Sf9 insect cells (baculovirus)
From the text: as §1, with “BAP. Using this approach, 1-2 mg protein of purified protein can be obtained per liter of Sf9 insect cells. As 45 ng of protein is used in the phage ELISA assay, a single purification is sufficient for 10,000 to 30,000 binding assays.” for “BAP.”
as §3, §2, §4

T8 sequence (P54311 whole entry H311A): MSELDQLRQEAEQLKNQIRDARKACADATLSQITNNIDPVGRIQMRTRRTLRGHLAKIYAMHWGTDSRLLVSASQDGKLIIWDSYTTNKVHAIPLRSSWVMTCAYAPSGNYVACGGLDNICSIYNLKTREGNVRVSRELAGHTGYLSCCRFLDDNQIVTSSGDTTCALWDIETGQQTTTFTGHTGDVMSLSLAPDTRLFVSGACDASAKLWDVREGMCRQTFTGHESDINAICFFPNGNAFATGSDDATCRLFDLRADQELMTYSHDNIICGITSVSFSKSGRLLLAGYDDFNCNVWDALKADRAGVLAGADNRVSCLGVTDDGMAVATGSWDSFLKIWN
T8 sequence (P63212 2-68 partner limits assumed): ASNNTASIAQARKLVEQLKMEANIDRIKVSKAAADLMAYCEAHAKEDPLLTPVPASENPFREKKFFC
T2 sequence (P54311 whole entry D246S): as the sequence (P54311 whole entry H311A) above, with D246S, A311H counted along it
T2 sequence (P63212 2-68 partner limits assumed): as the sequence (P63212 2-68 partner limits assumed) above
T12 sequence (P54311 whole entry K57A): as the sequence (P54311 whole entry H311A) above, with K57A, A311H counted along it
T12 sequence (P63212 2-68 partner limits assumed): as the sequence (P63212 2-68 partner limits assumed) above
T9 sequence (P54311 whole entry W332A): as the sequence (P54311 whole entry H311A) above, with A311H, W332A counted along it
T9 sequence (P63212 2-68 partner limits assumed): as the sequence (P63212 2-68 partner limits assumed) above
T7 sequence (P54311 whole entry W99A): as the sequence (P54311 whole entry H311A) above, with W99A, A311H counted along it
T7 sequence (P63212 2-68 partner limits assumed): as the sequence (P63212 2-68 partner limits assumed) above
T1 sequence (P54311 whole entry Y59A): as the sequence (P54311 whole entry H311A) above, with Y59A, A311H counted along it
T1 sequence (P63212 2-68 partner limits assumed): as the sequence (P63212 2-68 partner limits assumed) above
T3 sequence (P54311 whole entry N230A): as the sequence (P54311 whole entry H311A) above, with N230A, A311H counted along it
T3 sequence (P63212 2-68 partner limits assumed): as the sequence (P63212 2-68 partner limits assumed) above
T4 sequence (P54311 whole entry Y145A): as the sequence (P54311 whole entry H311A) above, with Y145A, A311H counted along it
T4 sequence (P63212 2-68 partner limits assumed): as the sequence (P63212 2-68 partner limits assumed) above
T13 sequence (P54311 whole entry L117A): as the sequence (P54311 whole entry H311A) above, with L117A, A311H counted along it
T13 sequence (P63212 2-68 partner limits assumed): as the sequence (P63212 2-68 partner limits assumed) above
T5 sequence (P54311 whole entry M101A): as the sequence (P54311 whole entry H311A) above, with M101A, A311H counted along it
T5 sequence (P63212 2-68 partner limits assumed): as the sequence (P63212 2-68 partner limits assumed) above
T10 sequence (P54311 whole entry D186A): as the sequence (P54311 whole entry H311A) above, with D186A, A311H counted along it
T10 sequence (P63212 2-68 partner limits assumed): as the sequence (P63212 2-68 partner limits assumed) above
T6 sequence (P54311 whole entry R314A): as the sequence (P54311 whole entry H311A) above, with A311H, R314A counted along it
T6 sequence (P63212 2-68 partner limits assumed): as the sequence (P63212 2-68 partner limits assumed) above
T11 sequence (P54311 whole entry M188A): as the sequence (P54311 whole entry H311A) above, with M188A, A311H counted along it
T11 sequence (P63212 2-68 partner limits assumed): as the sequence (P63212 2-68 partner limits assumed) above

Sequence | % of Wild-Type Signal, Tyr59 (Gβ1γ2 Tyr59Ala) | % of Wild-Type Signal, Asp246 (Gβ1γ2 Asp246Ser) | % of Wild-Type Signal, Asn230 (Gβ1γ2 Asn230Ala) | % of Wild-Type Signal, Tyr145 (Gβ1γ2 Tyr145Ala) | % of Wild-Type Signal, Met101 (Gβ1γ2 Met101Ala) | % of Wild-Type Signal, Arg314 (Gβ1γ2 Arg314Ala) | % of Wild-Type Signal, Trp99 (Gβ1γ2 Trp99Ala) | % of Wild-Type Signal, His311 (Gβ1γ2 His311Ala) | % of Wild-Type Signal, Trp332 (Gβ1γ2 Trp332Ala) | % of Wild-Type Signal, Asp186 (Gβ1γ2 Asp186Ala) | % of Wild-Type Signal, Met188 (Gβ1γ2 Met188Ala) | % of Wild-Type Signal, Lys57 (Gβ1γ2 Lys57Ala) | % of Wild-Type Signal, Leu117 (Gβ1γ2 Leu117Ala)
WCPPKAMTQLGIKAC [C14] | 3.6 ± 2.0% | 6.3 ± 13.9% | 60.0 ± 26.5% | 1.9 ± 5.9% | 1.1 ± 4.9% | 3.9 ± 7.9% | 10.1 ± 3.3% | 6.1 ± 3.4% | 1.6 ± 2.4% | 3.6 ± 1.9% | 9.9 ± 3.8% | 3.0 ± 5.0% | 3.8 ± 9.2%
WCPPKLEQWYDGCA [C2] | −1.7 ± 4.8% | 5.9 ± 5.7% | 0.0 ± 3.3% | 4.5 ± 8.1% | 157.1 ± 51.5% | 1.3 ± 3.1% | −1.0 ± 5.1% | 11.7 ± 8.0% | 4.7 ± 6.2% | 267.2 ± 40.6% | −0.7 ± 2.5% | −1.2 ± 4.5% | 1.5 ± 5.5%
